Numbering of substitutions follows the chain as printed.
B1: Ab6 ADC: Ab6 conjugated as in Formula XI, and with a DAR of 8 (conjugate)
heavy: QVQLVQSGAEVKKPGASVKVSCKASGYTFTGYYMHWVRQAPGQGLEWMGIINPSGGSTTYAQKFQGRVTMTRDTSTSTVYMELSSLRSEDTAVYYCARGRLGTYFDYWGQGTLVTVSSASTKGPSVFPLAPSSKSTSGGTAALGCLVKDYFPEPVTVSWNSGALTSGVHTFPAVLQSSGLYSLSSVVTVPSSSLGTQTYICNVNHKPSNTKVDKRVEPKSCDKTHTCPPCPAPEAAGGPSVFLFPPKPKDTLMISRTPEVTCVVVSVSHEDPEVKFNWYVDGVEVHNAKTKPREEQYNSTYRVVSVLTVLHQDWLNGKEYKCKVSNKALPAPIEKTISKAKGQPREPQVYTLPPSREEMTKNQVSLTCLVKGFYPSDIAVEWESNGQPENNYKTTPPVLDSDGSFFLYSKLTVDKSRWQQGNVFSCSVMHEALHNHYTQKSLSLSPGK
light: SYVLTQPPSVSVAPGQTARITCGGNNIGSKSVHWYQQKPGQAPVLVVYDDSDRPSGIPERFSGSNSGNTATLTISRVEAGDEADYYCQVWDRSSDQVVFGGGTKLTVLGQPKAAPSVTLFPPSSEELQANKATLVCLISDFYPGAVTVAWKADSSPVKAGVETTTPSKQSNNKYAASSYLSLTPEQWKSHRSYSCQVTHEGSTVEKTVAPTECS
B2: Ab1a ADC: Ab1a conjugated as in Formula XI, and with a DAR of 8 (conjugate)
heavy: QVQLVQSGAQVKKPGASVKVSCKASGYTFTGYYIHWVRQAPGQGLEWMGWINPNSGGTNYAQKFQGRVTMTRDTSISTAYMELSRLRSDDTAVYFCAREDWDFDYWGQGTLVTVSSASTKGPSVFPLAPSSKSTSGGTAALGCLVKDYFPEPVTVSWNSGALTSGVHTFPAVLQSSGLYSLSSVVTVPSSSLGTQTYICNVNHKPSNTKVDKRVEPKSCDKTHTCPPCPAPEAAGGPSVFLFPPKPKDTLMISRTPEVTCVVVSVSHEDPEVKFNWYVDGVEVHNAKTKPREEQYNSTYRVVSVLTVLHQDWLNGKEYKCKVSNKALPAPIEKTISKAKGQPREPQVYTLPPSREEMTKNQVSLTCLVKGFYPSDIAVEWESNGQPENNYKTTPPVLDSDGSFFLYSKLTVDKSRWQQGNVFSCSVMHEALHNHYTQKSLSLSPGK
light: EIVLTQSPGTLSLSPGERATLSCRTSQSVSSSYLAWYQQKPGQAPRLLIYGASNRATDIPDRFSGSGSGTDFTLTINRLEPEDFAVYYCQQYGSSPITFGQGTRLEIKRTVAAPSVFIFPPSDEQLKSGTASVVCLLNNFYPREAKVQWKVDNALQSGNSQESVTEQDSKDSTYSLSSTLTLSKADYEKHKVYACEVTHQGLSSPVTKSFNRGEC
B3: Ab3 ADC: Ab3 conjugated as in Formula XI, and with a DAR of 8 (conjugate)
heavy: EVQLVESGGGLVKPGGSLRLSCAASGFNLNHYNMNWVRQAPGKGLEWVSSVSSGGGFRYYADSVRGRFTISRDNAKNSLYLQMNSLRAEDTAVYYCARGAVFHDAFDIWGQGTLVTVSSASTKGPSVFPLAPSSKSTSGGTAALGCLVKDYFPEPVTVSWNSGALTSGVHTFPAVLQSSGLYSLSSVVTVPSSSLGTQTYICNVNHKPSNTKVDKRVEPKSCDKTHTCPPCPAPEAAGGPSVFLFPPKPKDTLMISRTPEVTCVVVSVSHEDPEVKFNWYVDGVEVHNAKTKPREEQYNSTYRVVSVLTVLHQDWLNGKEYKCKVSNKALPAPIEKTISKAKGQPREPQVYTLPPSREEMTKNQVSLTCLVKGFYPSDIAVEWESNGQPENNYKTTPPVLDSDGSFFLYSKLTVDKSRWQQGNVFSCSVMHEALHNHYTQKSLSLSPGK
light: DIQLTQSPSFLSASVGDRVTITCRASQDISSYLAWYQQKPGKAPKLLIYVASTLQSGVPSRFSGSGSGTEFTLTISSLQPEDFATYYCQQINSYPFTFGQGTKVEIKRTVAAPSVFIFPPSDEQLKSGTASVVCLLNNFYPREAKVQWKVDNALQSGNSQESVTEQDSKDSTYSLSSTLTLSKADYEKHKVYACEVTHQGLSSPVTKSFNRGEC
B4: Ab5 ADC: Ab5 conjugated as in Formula XI, and with a DAR of 8 (conjugate)
heavy: QVQLVQSGAEVKKPGASVKVSCKASGYTFTSYYVHWVRQAPGQGLEWMGIINPSIISTSYAQKFQARVTMTRDTSTSTVYMELSSLRSEDTAVYYCARGLNFDAFDIWGQGTLVTVSSASTKGPSVFPLAPSSKSTSGGTAALGCLVKDYFPEPVTVSWNSGALTSGVHTFPAVLQSSGLYSLSSVVTVPSSSLGTQTYICNVNHKPSNTKVDKRVEPKSCDKTHTCPPCPAPEAAGGPSVFLFPPKPKDTLMISRTPEVTCVVVSVSHEDPEVKFNWYVDGVEVHNAKTKPREEQYNSTYRVVSVLTVLHQDWLNGKEYKCKVSNKALPAPIEKTISKAKGQPREPQVYTLPPSREEMTKNQVSLTCLVKGFYPSDIAVEWESNGQPENNYKTTPPVLDSDGSFFLYSKLTVDKSRWQQGNVFSCSVMHEALHNHYTQKSLSLSPGK
light: B3 light with D28G, V50A, I91L, S93N
B5: Ab4 ADC: Ab4 conjugated as in Formula XI, and with a DAR of 8 (conjugate)
heavy: QVQLQESGPGLVKPSETLSLTCTVSGGSISGYYWSWIRQPPGKGLEWIGYIYYSGSTNYNPSLKSRVTISVDTSKNQFSLKLSSVTAADTAVYYCARLGIFFDAFDIWGQGTLVTVSSASTKGPSVFPLAPSSKSTSGGTAALGCLVKDYFPEPVTVSWNSGALTSGVHTFPAVLQSSGLYSLSSVVTVPSSSLGTQTYICNVNHKPSNTKVDKRVEPKSCDKTHTCPPCPAPEAAGGPSVFLFPPKPKDTLMISRTPEVTCVVVSVSHEDPEVKFNWYVDGVEVHNAKTKPREEQYNSTYRVVSVLTVLHQDWLNGKEYKCKVSNKALPAPIEKTISKAKGQPREPQVYTLPPSREEMTKNQVSLTCLVKGFYPSDIAVEWESNGQPENNYKTTPPVLDSDGSFFLYSKLTVDKSRWQQGNVFSCSVMHEALHNHYTQKSLSLSPGK
light: B3 light with D28G, V50A, I91F, F96W

The molecules below were run on UM-UC-3 Nectin4 clone F7 xenograft (assay: Tumor xenograft, high nectin-4 expression). Details: UMUC3 Nectin-4 clone F7 xenograft, single dose 2 mg/kg, day 40.
Type: in vivo, mice (nu/nu)
Procedure: In order to test the efficacy of the nectin-4 ADCs of the present disclosure, which have effector null mutations in the Fc region, and to compare to the enfortumab antibody, which has wildtype Fc and in an ADC with the same payload background as the ones of this disclosure, two tumor xenograft models with either high or moderate nectin-4 expression were tested as described. Immune compromised female mice (nu/nu) between 5-8 weeks of age with weight 18-20 grams were implanted unilaterally on the right flank with UM-UC-3 Nectin4 clone F7 cells with high nectin-4 expression. […] The test articles were given at a single dose (2 mg/kg) formulated with 5% dextrose. Tumors were measured biweekly until Day 40.

Molecule	Mean tumor volume [mm^3]
B1	866.94
B2	234.79
B3	993.45
B4	632.99
B5	928.09

These molecules were tested on MDA-MB-468 xenograft (assay: Tumor xenograft, moderate nectin-4 expression). Details: MDAMB468 xenograft, single dose 2 mg/kg, day 71.
Type: in vivo, NSG mice
Procedure: In a separate study, female NSG mice between 5-6 weeks of age were injected subcutaneously with MDA-MB-468 cells with moderate Nectin-4 expression. When tumors reached approximately 150-250 mm^3; animals were matched by tumor volume into treatment or control groups and dosing initiated (Day 0, n=8 per group). The test articles were given at a single dose (2 mg/kg) formulated with 5% Dextrose. Tumors were measured biweekly until Day 71.
In both models, a 2 mg/kg single dose treatment of either the nectin-4 ADCs (exemplified herein with each of Abs1-8 conjugated as in Formula XI, and with a DAR of 8) or benchmark enfortumab ADC (enfortumab conjugated with Formula XI, and with a DAR of 8) was used. Tumor growth was measured at day 40 for UMUC3 Nectin-4 clone F7 and day 71 for MDAMB468 xenografts.

Molecule	Mean tumor volume [mm^3]
B1	304.9
B2	135.24
B3	366.45
B4	220.38
B5	343.65
